According to patent US20110263454A1, “Methods of Identifying Functional Characteristics of Promoters, Transcription Modifying Proteins and Transcription Modulating Agents” (Salk Institute for Biological Studies, priority 2008, published 2011):

Assays:
Type in all cases: cell-based, mouse
[1] = tested on: mDio1 promoter; assay: NHR-promoter luciferase screen, mDio1 promoter; conditions: for Luc. act., normalized to lacZ / Normalized Luc. act., normalized to control: Dio1, HR component without or with its ligand; for mDio1 promoter reporter activity: transcription factor +/- ligand, control = 1.00
Protocol: (§1) The use, feasibility, and reproducibility of the functional NHR-promoter screen in a 48-well format have been tested validated. Briefly, there were co-expressed 50 ng of each NHR/NHR homodimer or NHR/RXR heterodimer with 100 ng promoter/luciferase construct and 50 ng of LacZ (as a control for transfection efficiency) in CV-1 cells using Fugene HD (Roche) as a transfection reagent (alternatively or additionally, a CMV-YFP construct can be used as a transfection control). Each of the nuclear hormone receptors that were used in these experiments was cloned into a pcDNA3.1 vector and comprised a C-terminally linked V5H6 tag. Twenty-four hours after transfection, appropriate ligands were added, where applicable, (see Table 5 for various ligands and concentrations and after 48 hrs, samples were assayed for luciferase and LacZ activity. To measure for luciferase activity 15 ul of sample was added to 30 ul of luciferase buffer (20 mM tricine, 1.07 mM MgCarbonate, 2.67 mM MgSulfate, 0.1 mM Naz-EDTA, 5 mM DTT, 5 mM ATP, 0.15 mg/ml CoA, 0.5 mM Luciferin), mixed briefly, and run in a Perkin Elmer Victor 5 luminometer. Thus, the functional NHR-promoter screen was used to observe the transcriptional activity of 29 promoters from various physiological pathways including inflammation, lipid and sugar metabolism, cholesterol transport, xenobiotic metabolism, and circadian rhythm.
(§2) The promoters that facilitate transcription of the indicated gene products that were tested using the protocols described herein are listed in the first row of the table. The nuclear hormone receptors and, where applicable, ligands that were assayed for their transcriptional effects on the promoters are listed in the first column of the table. The data represent the luciferase activity of each sample normalized to both the lacZ activity of that sample and to a control, e.g., no NHR or ligand, as customary in the art. As described previously, these normalizations allow the transcriptional activity of each reporter cell to be compared to other samples.
(§3) Tables 7-40 show the transcriptional effects of the hormone receptors, and, where applicable, ligands (orphan receptors are screened without ligand), on each individual promoter. […] The control data of each table are shown in their last rows.

[2] = tested on: SREBP1c promoter; assay: NHR-promoter luciferase screen, SREBP1c promoter; conditions: for Luc. act., normalized to lacZ / Normalized Luc. act., normalized to control: SREBP1c promoter, HR component without or with ligand; for mSREBP1-c promoter reporter activity: transcription factor +/- ligand, control = 1.00
Protocol: as §1, §2, §3

[3] = tested on: mGhrelin promoter; assay: NHR-promoter luciferase screen, mGhrelin promoter; conditions: for Luc. act., normalized to lacZ / Normalized Luc. act., normalized to control: Table 8, mGhrelin; for Results of assays of transcription factor (+/- ligand) with mGhrelin: Table 6d, luciferase activity relative to control (control = 1.00)
Protocol: as §1, §2, §3

| Molecule | Luc. act., normalized to lacZ [1] | Normalized Luc. act., normalized to control [1] | mDio1 promoter reporter activity [1] | Luc. act., normalized to lacZ [2] | Normalized Luc. act., normalized to control [2] | mSREBP1-c promoter reporter activity [2] | Luc. act., normalized to lacZ [3] | Normalized Luc. act., normalized to control [3] | Results of assays of transcription factor (+/- ligand) with mGhrelin [3] |
| --- | --- | --- | --- | --- | --- | --- | --- | --- | --- |
| PPARd: Peroxisome proliferator activated receptor δ (NR1C2), cDNA driver (protein, UniProt Q03181 1-441, looked up) Peroxisome …: MEQPQEEAPEVREEEEKEEVAEAEGAPELNGGPQHALPSSSYTDLSRSSSPPSLLDQLQMGCDGASCGSLNMECRVCGDKASGFHYGVHACEGCKGFFRRTIRMKLEYEKCERSCKIQKKNRNKCQYCRFQKCLALGMSHNAIRFGRMPEAEKRKLVAGLTANEGSQYNPQVADLKAFSKHIYNAYLKNFNMTKKKARSILTGKASHTAPFVIHDIETLWQAEKGLVWKQLVNGLPPYKEISVHVFYRCQCTTVETVRELTEFAKSIPSFSSLFLNDQVTLLKYGVHEAIFAMLASIVNKDGLLVANGSGFVTREFLRSLRKPFSDIIEPKFEFAVKFNALELDDSDLALFIAAIILCGDRPGLMNVPRVEAIQDTILRALEFHLQANHPDAQYLFPKLLQKMADLRQLVTEHAQMMQRIKKTETETSLHPLLQEIYKDMY | 10.0 | 2.2 | 2.23 | 658.7 | 2.0 | 2.04 | 56.1 | 1.1 | 1.07 |
| RORb: RAR-related Orphan Receptor β (NR1F2), cDNA driver (protein, UniProt Q92753 1-470, looked up) Nuclear receptor ROR-beta: MCENQLKTKADATAQIEVIPCKICGDKSSGIHYGVITCEGCKGFFRRSQQNNASYSCPRQRNCLIDRTNRNRCQHCRLQKCLALGMSRDAVKFGRMSKKQRDSLYAEVQKHQQRLQEQRQQQSGEAEALARVYSSSISNGLSNLNNETSGTYANGHVIDLPKSEGYYNVDSGQPSPDQSGLDMTGIKQIKQEPIYDLTSVPNLFTYSSFNNGQLAPGITMTEIDRIAQNIIKSHLETCQYTMEELHQLAWQTHTYEEIKAYQSKSREALWQQCAIQITHAIQYVVEFAKRITGFMELCQNDQILLLKSGCLEVVLVRMCRAFNPLNNTVLFEGKYGGMQMFKALGSDDLVNEAFDFAKNLCSLQLTEEEIALFSSAVLISPDRAWLIEPRKVQKLQEKIYFALQHVIQKNHLDDETLAKLIAKIPTITAVCNLHGEKLQVFKQSHPEIVNTLFPPLYKELFNPDCATGCK | 6.4 | 1.4 | 1.44 | 442.5 | 1.4 | 1.37 | 89.1 | 1.7 | 1.70 |
| FXR: Farnesoid X Receptor (NR1H4), cDNA driver (protein, UniProt Q96RI1 1-486, looked up) Bile acid receptor: MVMQFQGLENPIQISPHCSCTPSGFFMEMMSMKPAKGVLTEQVAGPLGQNLEVEPYSQYSNVQFPQVQPQISSSSYYSNLGFYPQQPEEWYSPGIYELRRMPAETLYQGETEVAEMPVTKKPRMGASAGRIKGDELCVVCGDRASGYHYNALTCEGCKGFFRRSITKNAVYKCKNGGNCVMDMYMRRKCQECRLRKCKEMGMLAECMYTGLLTEIQCKSKRLRKNVKQHADQTVNEDSEGRDLRQVTSTTKSCREKTELTPDQQTLLHFIMDSYNKQRMPQEITNKILKEEFSAEENFLILTEMATNHVQVLVEFTKKLPGFQTLDHEDQIALLKGSAVEAMFLRSAEIFNKKLPSGHSDLLEERIRNSGISDEYITPMFSFYKSIGELKMTQEEYALLTAIVILSPDRQYIKDREAVEKLQEPLLDVLQKLCKIHQPENPQHFACLLGRLTELRTFNHHHAEMLMSWRVNDHKFTPLLCEIWDVQ | 7.2 | 1.6 | 1.62 | 551.0 | 1.7 | 1.71 | 65.7 | 1.3 | 1.26 |
| RXRg: Retinoic X Receptor γ (NR2B3), cDNA driver (protein, UniProt P48443 1-463, looked up) Retinoic acid receptor …: MYGNYSHFMKFPAGYGGSPGHTGSTSMSPSAALSTGKPMDSHPSYTDTPVSAPRTLSAVGTPLNALGSPYRVITSAMGPPSGALAAPPGINLVAPPSSQLNVVNSVSSSEDIKPLPGLPGIGNMNYPSTSPGSLVKHICAICGDRSSGKHYGVYSCEGCKGFFKRTIRKDLIYTCRDNKDCLIDKRQRNRCQYCRYQKCLVMGMKREAVQEERQRSRERAESEAECATSGHEDMPVERILEAELAVEPKTESYGDMNMENSTNDPVTNICHAADKQLFTLVEWAKRIPHFSDLTLEDQVILLRAGWNELLIASFSHRSVSVQDGILLATGLHVHRSSAHSAGVGSIFDRVLTELVSKMKDMQMDKSELGCLRAIVLFNPDAKGLSNPSEVETLREKVYATLEAYTKQKYPEQPGRFAKLLLRLPALRSIGLKCLEHLFFFKLIGDTPIDTFLMEMLETPLQIT | 6.6 | 1.5 | 1.48 | 999.7 | 3.1 | 3.10 | 59.0 | 1.1 | 1.13 |
| CAR: Constitutive Androstane Receptor (NR1I3), cDNA driver (protein, UniProt Q14994 1-352, looked up) Nuclear receptor subfamily 1 …: MASREDELRNCVVCGDQATGYHFNALTCEGCKGFFRRTVSKSIGPTCPFAGSCEVSKTQRRHCPACRLQKCLDAGMRKDMILSAEALALRRAKQAQRRAQQTPVQLSKEQEELIRTLLGAHTRHMGTMFEQFVQFRPPAHLFIHHQPLPTLAPVLPLVTHFADINTFMVLQVIKFTKDLPVFRSLPIEDQISLLKGAAVEICHIVLNTTFCLQTQNFLCGPLRYTIEDGARVSPTVGFQVEFLELLFHFHGTLRKLQLQEPEYVLLAAMALFSPDRPGVTQRDEIDQLQEEMALTLQSYIKGQQRRPRDRFLYAKLLGLLAELRSINEAYGYQIQHIQGLSAMMPLLQEICS | 4.5 | 1.0 | 1.01 | 312.9 | 1.0 | 0.97 | 52.2 | 1.0 | 1.00 |
| PXR: Pregnane X Receptor (NR1I2), cDNA driver (protein, UniProt O75469 1-434, looked up) Nuclear receptor subfamily 1 …: MEVRPKESWNHADFVHCEDTESVPGKPSVNADEEVGGPQICRVCGDKATGYHFNVMTCEGCKGFFRRAMKRNARLRCPFRKGACEITRKTRRQCQACRLRKCLESGMKKEMIMSDEAVEERRALIKRKKSERTGTQPLGVQGLTEEQRMMIRELMDAQMKTFDTTFSHFKNFRLPGVLSSGCELPESLQAPSREEAAKWSQVRKDLCSLKVSLQLRGEDGSVWNYKPPADSGGKEIFSLLPHMADMSTYMFKGIISFAKVISYFRDLPIEDQISLLKGAAFELCQLRFNTVFNAETGTWECGRLSYCLEDTAGGFQQLLLEPMLKFHYMLKKLQLHEEEYVLMQAISLFSPDRPGVLQHRVVDQLQEQFAITLKSYIECNRPQPAHRFLFLKIMAMLTELRSINAQHTQRLLRIQDIHPFATPLMQELFGITGS | 11.3 | 2.5 | 2.52 | 486.8 | 1.5 | 1.51 | 136.2 | 2.6 | 2.61 |
| RXRb: Retinoic X Receptor β (NR2B2), cDNA driver (protein, UniProt P28702 1-533, looked up) Retinoic acid receptor …: MSWAARPPFLPQRHAAGQCGPVGVRKEMHCGVASRWRRRRPWLDPAAAAAAAVAGGEQQTPEPEPGEAGRDGMGDSGRDSRSPDSSSPNPLPQGVPPPSPPGPPLPPSTAPSLGGSGAPPPPPMPPPPLGSPFPVISSSMGSPGLPPPAPPGFSGPVSSPQINSTVSLPGGGSGPPEDVKPPVLGVRGLHCPPPPGGPGAGKRLCAICGDRSSGKHYGVYSCEGCKGFFKRTIRKDLTYSCRDNKDCTVDKRQRNRCQYCRYQKCLATGMKREAVQEERQRGKDKDGDGEGAGGAPEEMPVDRILEAELAVEQKSDQGVEGPGGTGGSGSSPNDPVTNICQAADKQLFTLVEWAKRIPHFSSLPLDDQVILLRAGWNELLIASFSHRSIDVRDGILLATGLHVHRNSAHSAGVGAIFDRVLTELVSKMRDMRMDKTELGCLRAIILFNPDAKGLSNPSEVEVLREKVYASLETYCKQKYPEQQGRFAKLLLRLPALRSIGLKCLEHLFFFKLIGDTPIDTFLMEMLEAPHQLA | 4.4 | 1.0 | 0.99 | 544.4 | 1.7 | 1.69 | 62.9 | 1.2 | 1.20 |
